Data: US20200347130A1 (JIANGSU HENGRUI MEDICINE, published 2020)

T1: Biotinylated CD96 antigen (human, UniProt P40200-2 22-503, limits assumed, biotinylated)
T1 sequence (looked up): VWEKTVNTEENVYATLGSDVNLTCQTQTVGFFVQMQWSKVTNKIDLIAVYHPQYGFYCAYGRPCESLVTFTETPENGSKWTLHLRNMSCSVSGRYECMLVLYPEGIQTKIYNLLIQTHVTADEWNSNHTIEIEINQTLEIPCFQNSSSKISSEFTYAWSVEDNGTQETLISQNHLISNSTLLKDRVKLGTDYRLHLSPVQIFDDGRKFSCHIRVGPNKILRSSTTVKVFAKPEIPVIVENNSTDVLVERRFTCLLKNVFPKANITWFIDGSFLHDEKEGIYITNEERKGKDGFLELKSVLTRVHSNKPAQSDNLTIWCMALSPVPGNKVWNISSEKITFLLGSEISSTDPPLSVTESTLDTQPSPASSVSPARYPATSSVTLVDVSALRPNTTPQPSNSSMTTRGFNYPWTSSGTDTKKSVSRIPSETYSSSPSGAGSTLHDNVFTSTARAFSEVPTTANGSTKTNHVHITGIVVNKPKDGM

T2: CD96 epitope peptide #19 (280-299) (human)
T2 peptide: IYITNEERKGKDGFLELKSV

T3: CD96 epitope peptide #10 (149-170) (human)
T3 peptide: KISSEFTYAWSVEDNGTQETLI

T4: CD96 epitope peptide #4 (62-81) (human)
T4 peptide: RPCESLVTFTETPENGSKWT

T5: CD96 epitope peptide #18 (265-284) (human)
T5 peptide: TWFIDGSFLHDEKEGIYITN

T6: CD96 epitope peptide #21 (310-329) (human)
T6 peptide: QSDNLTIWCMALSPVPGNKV

T7: CD96 epitope peptide #9 (137-156) (human)
T7 peptide: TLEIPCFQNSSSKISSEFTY


Legend:
[1] = molecular target: T1, Biotinylated CD96 antigen; test: competition ELISA, antibody B premixed with biotinylated CD96; competitor (coated antibody A): h1718-012
Procedure: Competitive assays of different antibodies binding to CD96 protein were used to classify binding epitopes of the antibodies. The specific experimental methods are as follows:
Antibody A was diluted to a concentration of 2 μg/ml with PBS buffer (Shanghai Yuanpei Biotechnology Co., Ltd. Cat No. B320), pH 7.4, added to a 96-well microtiter plate (Corning, Cat No. CLS3590-100EA) at a volume of 50 μl/well, and coated at 4° C. overnight. After discarding the liquid, 250 μl/well of 5% skim milk (BD skim milk, Cat No. 232100) blocking solution diluted with PBS was added, and the plate was incubated at 37° C. for 3 hours. After blocking, the blocking solution was discarded, and the plate was washed 5 times with PBST buffer (pH 7.4 PBS containing 0.05% tween-20) and stored for later use. Antibody B was diluted to 40 μg/ml and 8 μg/ml with 1% BSA, and Biotinylated CD96 antigen was simultaneously diluted to 4 μg/mL. Subsequently, antibody B and antigen were mixed in a 1:1 volume ratio, pre-incubated at 37° C. for 45 minutes, added into the enzyme plate coated with antibody A, thus incubating the plate in an incubator at 37° C. for 1.5 hours. After incubation, the plate was washed for 5 times with PBST, and 50 μl/well of HRP-labeled streptavidin (Sigma, Cat No. 52438) diluted with sample dilution was added, followed by incubating the plate at 37° C. for 1 hour. After washing the plate 5 times with PBST, 50 μl/well of TMB chromogenic substrate (KPL, Cat No. 52-00-03) was added for color development, followed by adding 50 μl/well of 1M H₂SO₄ to stop the reaction. The absorption value was read at 450 nm with a NOVOStar microplate reader, and the OD value was used to determine whether A and B CD96 antibodies compete with each other. Antibodies that compete with each other fall into the same class of antibodies, otherwise belong to different classes of antibodies (see FIG. 3 and Table 18).

[2] = molecular target: T2, CD96 epitope peptide #19 (280-299); test: peptide ELISA ('-' indicates no binding, table note)
Procedure: (§1) The epitopes recognized by anti-CD96 antibody were detected by the assay of binding the antibody to different polypeptide fragments of CD96 protein. The fragments of different polypeptides of the CD96 antigen were coated on the microtiter plate. The signal density after the antibody was added was used to judge the binding activity of the antibody and the polypeptide. The specific experimental method is as follows:
(§2) The polypeptides were diluted to a concentration of 20 μg/ml with PBS buffer (Shanghai Yuanpei Biotechnology Co., Ltd. Cat No. B320), pH 7.4, added to a 96-well microtiter plate (Corning, Cat No. CLS3590-100EA) at a volume of 50 μl/well, and coated at 4° C. overnight. After discarding the liquid, 250 μl/well of 5% skim milk (BD skim milk, Cat No. 232100) blocking solution diluted with PBS was added, and the plate was incubated in an incubator at 37° C. for 3 hours. After blocking, the blocking solution was discarded, and the plate was washed 5 times with PBST buffer (pH 7.4 PBS containing 0.05% tween-20). 50 μl/well of different concentrations of the antibodies to be tested (hybridoma purification antibody or humanized antibody) diluted with sample dilution was added, and the plate was incubated in an incubator at 37° C. for 2 hours. […] After washing the plate 5 times with PBST, 50 μl/well of TMB chromogenic substrate (KPL, Cat No. 52-00-03) was added, the plate was incubated at room temperature for 5-15 min, followed by adding 50 μl/well of 1M H₂SO₄ to stop the reaction. The absorption value was read at 450 nm with a microplate reader (Thermo Scientific MuLtiskan MK3), and the epitopes that CD96 antibody can recognize were analyzed.

[3] = molecular target: T3, CD96 epitope peptide #10 (149-170); test: as above
Procedure: as §1, §2

[4] = molecular target: T4, CD96 epitope peptide #4 (62-81); test: as above
Procedure: as §1, §2

[5] = molecular target: T5, CD96 epitope peptide #18 (265-284); test: as above
Procedure: as §1, §2

[6] = molecular target: T6, CD96 epitope peptide #21 (310-329); test: as above
Procedure: as §1, §2

[7] = molecular target: T7, CD96 epitope peptide #9 (137-156); test: as above
Procedure: as §1, §2

Binder	competition (percent) [1]	binding result [2]	binding result [3]	binding result [4]	binding result [5]	binding result [6]	binding result [7]
h1718-012 (antibody, V domains shown, Only variable regions are tied to this name) VH: EVQLVQSGAEVKKPGASVKVSCKASGYTITDYNMNWVRQAPGQRLEWIGVINPSYGITDYNQNFKDRVTITVDTSASTAYMELSSLRSEDTAVYYCAIQLRLPGYFDVWGQGTTVTVSS VL: DIQMTQSPSSLSASVGDRVTITCKASQDINQYLNWFQQKPGKAPKTLIYRANRLVDGVPSRFSGSGSGQDYTLTISSLQPEDFATYYCLKYDEFPYTFGGGTKVEIK	100%	–	–	–	–	–	–
h1721-003 (antibody, V domains shown, Only variable regions are tied to this name; also called M721-003) VH: EVTLKESGPVLVKPTETLTLTCTVSGFSLSSYGVNWIRQPPGKALEWLGVIWGDGSTNYHSALISRLTISKDTSKSQVVLTLTNMDPVDTATYYCAKNYFYGSRYGYAMDSWGQGTTVTVSS VL: DIQMTQSPSSLSASVGDRVTITCRASENIYSSLAWYQQKPGKAPKLLIYNAKTLIEGVPSRFSGSGSGTDFTLTISSLQPEDFATYYCQHHYGTPYTFGGGTKVEIK	73.6%	–	–	–	–	–	–
h1719-014 (antibody, V domains shown, Only variable regions are tied to this name; also called M719-014) VH: EVTLKESGPVLVKPTETLTLTCTVSGFSLSSYGVSWVRQPPGKGLEWLGVIWGDGNTNYHSVLISRLTISKDTSKSQVVLTLTNMDPVDTATYYCAKNYYYGSRYGYPLDYWGQGTTVTVSS VL: DIQMTQSPSSVSASVGDRVTITCKATQDVGTAVAWYQQKPGKSPKLLIYWASTRHTGVPERFSGSGSGTDFTLTISSLQPEDFATYFCQQYGSSVLTFGGGTKVEIK	44.3%	–	–	–	–	–	–

The next lines start with the values.

competition (percent) [1]	binding result [2]	binding result [3]	binding result [4]	binding result [5]	binding result [6]	binding result [7]	Binder
-3.5%	–	–	–	–	–	–	h1722-010 (antibody, V domains shown, Only variable regions are tied to this name; also called M722-010) VH: EVQLVQSGAEVKKPGSSVKVSCKASGGTFSDYWMHWVRQAPGQGLEWIGMLHPNSGTTSFNEKFKIRVTITADKSTSTAYMELSSLRSEDTAVYYCASDYSGPFAYWGQGTLVTVSS VL: DIQLTQSPSSLSASVGDRVTITCSASSSVNYIHWYQQKPGKAPKRWIFDTSKLASGVPSRFSGSGSGTDYTLTISSLQPEDFATYYCQQWRSNPLTFGQGTKLEIK
94.4%	no binding	no binding	no binding	no binding	no binding	no binding	ch1720 (antibody, human IgG4 S228P, kappa, V domains shown, also called chimeric antibody corresponding to m1720) VH: EFQLQQSGPELVKPGASVKISCKASAYSLTDYNMNWVKQSNGKSLEWIGVINPSYGISSYNQKFKGKATLTVDQSSSTAYMHLNSLTSEDSAVYYCARQLRLPGYFDVWGTGTTVTVSS VL: DIKMTQSPSSKNASLGERVTITCKASQDINSYLNWFQQKPGKSPKTLIYRASRLVDGVPSRFSGSGSGQDYSLTISSLEYEDMGIYYCLKYDEFPYTFGGGTKLEIKR
–	no binding	no binding	no binding	no binding	no binding	no binding	ch1719 (antibody, human IgG4 S228P, kappa, V domains shown, also called chimeric antibody corresponding to m1719) VH: QVQLKESGPGLVAPSQSLSITCTVSGFSLISYGVSWVRQPPGKGLEWLGVIWGDGNTNYHSVLISRLSIRKDDSKSQVFLKLNSLQTDDTATYYCAKNNYYGSRYGYPMDYWGQGTSVTVSS VL: DIVMTQSHKFMSTSVGDRVSITCKATQDVGTAVAWYQQKPGHSPKLLIYWASTRHTGVPERFTGSGSGTDFTLTIDNVQSEDLADYFCQQYGSSVLTFGAGTKVELRR
–	no binding	no binding	no binding	no binding	no binding	no binding	ch1721 (antibody, human IgG4 S228P, kappa, V domains shown, also called chimeric antibody corresponding to m1721) VH: QVQLKESGPGLVAPSQSLSITCTVSGFSLISYGVNWVRQPPGKGLEWLGVIWGDGSTNYHSALISRLSISKDDSKSQVFLNLNSLQTDDTATYYCAKNYFYGSRYGYAMDSWGQGISVTVSS VL: DIQMTQSPASLSAAVGETVTITCRASENIYSSLAWYQQKQGKSPQLLVYNAKTLIETVASRFSGSGSGTQYSLKINSLQPEDFGSFYCQHHYGTPYTFGGGTKLEIKR
